# Reference: patent publication US11807689 (TG THERAPEUTICS, dated 2023)
# B1: TG-1101 (TG Therapeutics, Inc.) (antibody, human IgG1, kappa)
# heavy: not shown
# light: QIVLSQSPAILSASPGEKVTMTCRASSSVSYMHWYQQKPGSSPKPWIYATSNLASGVPARFSGSGSGTSYSFTISRVEAEDAATYYCQQWTFNPPTFGGGTRLEIKRTVAAPSVFIFPPSDEQLKSGTASVVCLLNNFYPREAKVQWKVDNALQSGNSQESVTEQDSKDSTYSLSSTLTLSKADYEKHKVYACEVTHQGLSSPVTKSFNRGEC
# notes: Chimeric IgG1 made in rat YB2/0 cells, low-fucose N-glycan profile; also called ublituximab; UBX
# Legend:
# [1] = target: FcγIIIA Receptor on the effector cells (UniProt P08637 17-254, limits assumed); assay: cell-based or functional assay
# [2] = target: C1q Receptor in the complement system (rabbit serum complement) (rabbit); assay: cell-based or functional assay
# FcγRIIIa 158V receptor = target: T1, FcγRIIIa 158V receptor (human, UniProt P08637 17-208, limits assumed); assay: SPR, receptor amine-coupled to the chip
# T1 construct: in the Octet assay part of a 'Human Fc receptor panel' loaded on Anti-Penta His biosensors, so probably His-tagged; also called FcγRIIIA V158
# Protocol: (§1) The method follows a direct binding assay methodology where the FcγRIIIa receptor is directly immobilized onto the flow cell on a sensor chip surface and samples are injected over the chip to assess binding. […] Independent duplicates of sample dilutions are injected over the chip, followed by surface regeneration between each cycle. The binding is measured in response units (RU). The kinetics of the binding reaction is determined by measuring changes in SPR due to the increase in mass in the close proximity to the biosensor chip surface. Change in the mass of the complex as a function of time is visualized as a sensorgram.
# (§2) The equilibrium dissociation constants (K_D) of each sample is determined for each receptor.
# FcγRIIIa 158F receptor = target: T2, FcγRIIIa 158F receptor (human, UniProt P08637 17-208, limits assumed); assay: SPR, receptor amine-coupled to the chip
# T2 construct: in the Octet assay part of a 'Human Fc receptor panel' loaded on Anti-Penta His biosensors, so probably His-tagged; also called FcγRIIIA F158
# Protocol: as §1, §2
# T1 sequence (P08637 17-208 F176V limits assumed): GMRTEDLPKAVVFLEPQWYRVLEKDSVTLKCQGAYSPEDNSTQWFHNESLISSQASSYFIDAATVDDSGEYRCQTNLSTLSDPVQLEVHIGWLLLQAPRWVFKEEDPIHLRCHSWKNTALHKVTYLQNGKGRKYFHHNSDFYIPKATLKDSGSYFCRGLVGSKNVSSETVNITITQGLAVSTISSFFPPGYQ
# FcγIIIA Receptor on the effector cells, sequence (P08637 17-254 limits assumed): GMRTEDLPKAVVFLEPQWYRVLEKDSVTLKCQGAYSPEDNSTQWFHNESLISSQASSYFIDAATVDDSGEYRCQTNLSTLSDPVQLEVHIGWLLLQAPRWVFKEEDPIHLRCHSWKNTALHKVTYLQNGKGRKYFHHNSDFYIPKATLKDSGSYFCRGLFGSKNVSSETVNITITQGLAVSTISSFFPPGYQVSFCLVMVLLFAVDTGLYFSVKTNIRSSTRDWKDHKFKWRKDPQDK
# T2 sequence (P08637 17-208 limits assumed): as the sequence (P08637 17-208 F176V limits assumed) above, with V160F counted along it
binder,measurement,setting,value
B1,"ADCC EC50, fold lower than OCREVUS ®",[1],~25 fold
same,"CDC EC50 (Jeko-1 cells, rabbit serum)",[2],0.67 µg/mL
same,fold higher affinity than OCREVUS®,FcγRIIIa 158V receptor,~15 fold
same,fold higher affinity than OCREVUS®,FcγRIIIa 158F receptor,~10 fold
